What is called IC50 is the point on the concentration scale where inhibition reaches its midpoint. A lower IC50 goes with greater potency.

The chains are these.
B1: Compound 117 (Ac-CRLPWNLQ(homoR)IGLPC-NH2) (peptide)
peptide: Ac-CRLPWNLQ[hArg]IGLPC-NH2
modifications: disulfide 1-14
SMILES: CC[C@H](C)[C@@H]1NC(=O)[C@H](CCCCNC(=N)N)NC(=O)[C@H](CCC(N)=O)NC(=O)[C@H](CC(C)C)NC(=O)[C@H](CC(N)=O)NC(=O)[C@H](Cc2c[nH]c3ccccc23)NC(=O)[C@@H]2CCCN2C(=O)[C@H](CC(C)C)NC(=O)[C@H](CCCNC(=N)N)NC(=O)[C@@H](NC(C)=O)CSSC[C@@H](C(N)=O)NC(=O)[C@@H]2CCCN2C(=O)[C@H](CC(C)C)NC(=O)CNC1=O
B2: Compound 77 (Ac-CRLAWNLQRIGLPC-NH2) (peptide)
peptide: Ac-CRLAWNLQRIGLPC-NH2
modifications: disulfide 1-14
SMILES: CC[C@H](C)[C@@H]1NC(=O)[C@H](CCCNC(=N)N)NC(=O)[C@H](CCC(N)=O)NC(=O)[C@H](CC(C)C)NC(=O)[C@H](CC(N)=O)NC(=O)[C@H](Cc2c[nH]c3ccccc23)NC(=O)[C@H](C)NC(=O)[C@H](CC(C)C)NC(=O)[C@H](CCCNC(=N)N)NC(=O)[C@@H](NC(C)=O)CSSC[C@@H](C(N)=O)NC(=O)[C@@H]2CCCN2C(=O)[C@H](CC(C)C)NC(=O)CNC1=O
B3: Compound 81 (Ac-CRLPWNLQRIGGGC-NH2) (peptide)
peptide: Ac-CRLPWNLQRIGGGC-NH2
modifications: disulfide 1-14
SMILES: CC[C@H](C)[C@@H]1NC(=O)[C@H](CCCNC(=N)N)NC(=O)[C@H](CCC(N)=O)NC(=O)[C@H](CC(C)C)NC(=O)[C@H](CC(N)=O)NC(=O)[C@H](Cc2c[nH]c3ccccc23)NC(=O)[C@@H]2CCCN2C(=O)[C@H](CC(C)C)NC(=O)[C@H](CCCNC(=N)N)NC(=O)[C@@H](NC(C)=O)CSSC[C@@H](C(N)=O)NC(=O)CNC(=O)CNC(=O)CNC1=O
B4: Compound 79 (Ac-CALPWNLQRIGLPC-NH2) (peptide)
peptide: Ac-CALPWNLQRIGLPC-NH2
modifications: disulfide 1-14
SMILES: CC[C@H](C)[C@@H]1NC(=O)[C@H](CCCNC(=N)N)NC(=O)[C@H](CCC(N)=O)NC(=O)[C@H](CC(C)C)NC(=O)[C@H](CC(N)=O)NC(=O)[C@H](Cc2c[nH]c3ccccc23)NC(=O)[C@@H]2CCCN2C(=O)[C@H](CC(C)C)NC(=O)[C@H](C)NC(=O)[C@@H](NC(C)=O)CSSC[C@@H](C(N)=O)NC(=O)[C@@H]2CCCN2C(=O)[C@H](CC(C)C)NC(=O)CNC1=O
B5: Compound 78 (Ac-CRAPWNLQRIGLPC-NH2) (peptide)
peptide: Ac-CRAPWNLQRIGLPC-NH2
modifications: disulfide 1-14
SMILES: CC[C@H](C)[C@@H]1NC(=O)[C@H](CCCNC(=N)N)NC(=O)[C@H](CCC(N)=O)NC(=O)[C@H](CC(C)C)NC(=O)[C@H](CC(N)=O)NC(=O)[C@H](Cc2c[nH]c3ccccc23)NC(=O)[C@@H]2CCCN2C(=O)[C@H](C)NC(=O)[C@H](CCCNC(=N)N)NC(=O)[C@@H](NC(C)=O)CSSC[C@@H](C(N)=O)NC(=O)[C@@H]2CCCN2C(=O)[C@H](CC(C)C)NC(=O)CNC1=O
B6: Compound 80 (Ac-CRLPWNLQRIGLGC-NH2) (peptide)
peptide: Ac-CRLPWNLQRIGLGC-NH2
modifications: disulfide 1-14
SMILES: CC[C@H](C)[C@@H]1NC(=O)[C@H](CCCNC(=N)N)NC(=O)[C@H](CCC(N)=O)NC(=O)[C@H](CC(C)C)NC(=O)[C@H](CC(N)=O)NC(=O)[C@H](Cc2c[nH]c3ccccc23)NC(=O)[C@@H]2CCCN2C(=O)[C@H](CC(C)C)NC(=O)[C@H](CCCNC(=N)N)NC(=O)[C@@H](NC(C)=O)CSSC[C@@H](C(N)=O)NC(=O)CNC(=O)[C@H](CC(C)C)NC(=O)CNC1=O
B7: Compound 110 (Ac-cRLPWNLQRIGLPC-NH2) (peptide)
peptide: Ac-[dC]RLPWNLQRIGLPC-NH2
modifications: disulfide 1-14
SMILES: CC[C@H](C)[C@@H]1NC(=O)[C@H](CCCNC(=N)N)NC(=O)[C@H](CCC(N)=O)NC(=O)[C@H](CC(C)C)NC(=O)[C@H](CC(N)=O)NC(=O)[C@H](Cc2c[nH]c3ccccc23)NC(=O)[C@@H]2CCCN2C(=O)[C@H](CC(C)C)NC(=O)[C@H](CCCNC(=N)N)NC(=O)[C@H](NC(C)=O)CSSC[C@@H](C(N)=O)NC(=O)[C@@H]2CCCN2C(=O)[C@H](CC(C)C)NC(=O)CNC1=O
B8: Compound 116 (Ac-CRLPWNLQRI-(Ahx)-C-NH2) (peptide)
peptide: Ac-CRLPWNLQRI[Ahx]C-NH2
modifications: disulfide 1-12
SMILES: CC[C@H](C)[C@@H]1NC(=O)[C@H](CCCNC(=N)N)NC(=O)[C@H](CCC(N)=O)NC(=O)[C@H](CC(C)C)NC(=O)[C@H](CC(N)=O)NC(=O)[C@H](Cc2c[nH]c3ccccc23)NC(=O)[C@@H]2CCCN2C(=O)[C@H](CC(C)C)NC(=O)[C@H](CCCNC(=N)N)NC(=O)[C@@H](NC(C)=O)CSSC[C@@H](C(N)=O)NC(=O)CCCCCNC1=O
B9: Compound 108 (Ac-CRlPWNLQRIGLPC-NH2) (peptide)
peptide: Ac-CR[dL]PWNLQRIGLPC-NH2
modifications: disulfide 1-14
SMILES: CC[C@H](C)[C@@H]1NC(=O)[C@H](CCCNC(=N)N)NC(=O)[C@H](CCC(N)=O)NC(=O)[C@H](CC(C)C)NC(=O)[C@H](CC(N)=O)NC(=O)[C@H](Cc2c[nH]c3ccccc23)NC(=O)[C@@H]2CCCN2C(=O)[C@@H](CC(C)C)NC(=O)[C@H](CCCNC(=N)N)NC(=O)[C@@H](NC(C)=O)CSSC[C@@H](C(N)=O)NC(=O)[C@@H]2CCCN2C(=O)[C@H](CC(C)C)NC(=O)CNC1=O
B10: Compound 121 (Ac-CRLPWNLQRI-(Ahp)-C-NH2) (peptide)
peptide: Ac-CRLPWNLQRI[Ahp]C-NH2
modifications: disulfide 1-12
SMILES: CC[C@H](C)[C@@H]1NC(=O)[C@H](CCCNC(=N)N)NC(=O)[C@H](CCC(N)=O)NC(=O)[C@H](CC(C)C)NC(=O)[C@H](CC(N)=O)NC(=O)[C@H](Cc2c[nH]c3ccccc23)NC(=O)[C@@H]2CCCN2C(=O)[C@H](CC(C)C)NC(=O)[C@H](CCCNC(=N)N)NC(=O)[C@@H](NC(C)=O)CSSC[C@@H](C(N)=O)NC(=O)CCCCCCNC1=O
B11: Compound 99 (Ac-CRLPWNLQRIGLpC-NH2) (peptide)
peptide: Ac-CRLPWNLQRIGL[dP]C-NH2
modifications: disulfide 1-14
SMILES: CC[C@H](C)[C@@H]1NC(=O)[C@H](CCCNC(=N)N)NC(=O)[C@H](CCC(N)=O)NC(=O)[C@H](CC(C)C)NC(=O)[C@H](CC(N)=O)NC(=O)[C@H](Cc2c[nH]c3ccccc23)NC(=O)[C@@H]2CCCN2C(=O)[C@H](CC(C)C)NC(=O)[C@H](CCCNC(=N)N)NC(=O)[C@@H](NC(C)=O)CSSC[C@@H](C(N)=O)NC(=O)[C@H]2CCCN2C(=O)[C@H](CC(C)C)NC(=O)CNC1=O
B12: Compound 63 (Ac-MCLWNLKRIGSQCEY-NH2) (peptide)
peptide: Ac-MCLWNLKRIGSQCEY-NH2
modifications: disulfide 2-13
SMILES: CC[C@H](C)[C@@H]1NC(=O)[C@H](CCCNC(=N)N)NC(=O)[C@H](CCCCN)NC(=O)[C@H](CC(C)C)NC(=O)[C@H](CC(N)=O)NC(=O)[C@H](Cc2c[nH]c3ccccc23)NC(=O)[C@H](CC(C)C)NC(=O)[C@@H](NC(=O)[C@H](CCSC)NC(C)=O)CSSC[C@@H](C(=O)N[C@@H](CCC(=O)O)C(=O)N[C@@H](Cc2ccc(O)cc2)C(N)=O)NC(=O)[C@H](CCC(N)=O)NC(=O)[C@H](CO)NC(=O)CNC1=O
B13: Compound 65 (Ac-WCLWNLKRIGSQCEY-NH2) (peptide)
peptide: Ac-WCLWNLKRIGSQCEY-NH2
modifications: disulfide 2-13
SMILES: CC[C@H](C)[C@@H]1NC(=O)[C@H](CCCNC(=N)N)NC(=O)[C@H](CCCCN)NC(=O)[C@H](CC(C)C)NC(=O)[C@H](CC(N)=O)NC(=O)[C@H](Cc2c[nH]c3ccccc23)NC(=O)[C@H](CC(C)C)NC(=O)[C@@H](NC(=O)[C@H](Cc2c[nH]c3ccccc23)NC(C)=O)CSSC[C@@H](C(=O)N[C@@H](CCC(=O)O)C(=O)N[C@@H](Cc2ccc(O)cc2)C(N)=O)NC(=O)[C@H](CCC(N)=O)NC(=O)[C@H](CO)NC(=O)CNC1=O
B14: Compound 109 (Ac-CrLPWNLQRIGLPC-NH2) (peptide)
peptide: Ac-C[dR]LPWNLQRIGLPC-NH2
modifications: disulfide 1-14
SMILES: CC[C@H](C)[C@@H]1NC(=O)[C@H](CCCNC(=N)N)NC(=O)[C@H](CCC(N)=O)NC(=O)[C@H](CC(C)C)NC(=O)[C@H](CC(N)=O)NC(=O)[C@H](Cc2c[nH]c3ccccc23)NC(=O)[C@@H]2CCCN2C(=O)[C@H](CC(C)C)NC(=O)[C@@H](CCCNC(=N)N)NC(=O)[C@@H](NC(C)=O)CSSC[C@@H](C(N)=O)NC(=O)[C@@H]2CCCN2C(=O)[C@H](CC(C)C)NC(=O)CNC1=O

Bridge positions count the residues as written; N and C are the ends. Square brackets hold non-standard residues; d marks the D form. Primed or numbered codes have the meaning given here. hArg = N=C(N)NCCCC[C@H](N)C(=O)O; Hyp′ = 3-hydroxyproline; Ahp = NCCCCCCC(=O)O; Ahx = NCCCCCC(=O)O

T1 sequence (Q8NBP7 31-152, stated change not applied, chain 1 of 2): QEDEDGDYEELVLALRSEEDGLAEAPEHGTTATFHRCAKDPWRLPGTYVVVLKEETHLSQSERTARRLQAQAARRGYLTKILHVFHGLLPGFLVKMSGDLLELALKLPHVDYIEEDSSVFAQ
T1 sequence (Q8NBP7 other isoform, or with tags, fused parts or gaps mutant, chain 2 of 2): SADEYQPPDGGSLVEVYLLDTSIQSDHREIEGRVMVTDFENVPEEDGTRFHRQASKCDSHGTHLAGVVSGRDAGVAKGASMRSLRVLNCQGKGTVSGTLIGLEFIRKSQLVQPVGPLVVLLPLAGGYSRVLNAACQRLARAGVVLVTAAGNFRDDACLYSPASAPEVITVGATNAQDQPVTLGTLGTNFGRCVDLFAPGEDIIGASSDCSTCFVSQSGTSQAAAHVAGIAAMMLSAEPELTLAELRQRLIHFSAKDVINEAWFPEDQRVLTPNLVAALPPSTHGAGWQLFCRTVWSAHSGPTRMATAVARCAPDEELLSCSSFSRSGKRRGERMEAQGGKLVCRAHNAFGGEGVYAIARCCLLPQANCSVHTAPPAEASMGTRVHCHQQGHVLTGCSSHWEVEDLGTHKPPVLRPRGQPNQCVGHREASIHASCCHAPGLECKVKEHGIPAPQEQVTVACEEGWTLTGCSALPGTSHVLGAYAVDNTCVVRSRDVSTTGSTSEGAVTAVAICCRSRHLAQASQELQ

One test has as its target T1, His-tagged PCSK9Δhelix (human, UniProt Q8NBP7 31-152; Q8NBP7 168-692).
T1 construct: Human PCSK9 M1-Q692 with an engineered TEV site, cut by TEV protease; new N-terminus of the catalytic domain is S-A168; also called His-PCSK9Δhelix; not shown: His tag
The test is described as follows: TR-FRET competition (PCSK9Δhelix/Ab20 assay); competitor Ab20. In general terms: Time-resolved FRET reads energy transfer from a long-lived donor to a nearby acceptor.
Molecule B1 registered an IC50 of 0.334 µM.
On the same count and under the same terms, the figure for Ac-SGCRL[Hyp′]WNLQRIGLPC-NH2 (disulfide 3-16) [Compound 37 (Ac-SG-CRL(Hyp)WNLQRIGLPC-NH2)] is 11.1 µM; for B2 it is 6.02 µM.
The same measure, in the same setting: with B3 the figure was 28.8 µM; with B4, 1.53 µM.
Same read-out and setting: with B5 the figure was 5.56 µM; with B6, 0.65 µM.
B7: the IC50 is 1.78 µM.
Same read-out and setting: the figure for B8 is 31.6 µM.
On the same count and under the same terms, with B9 the figure was 28.2 µM; with B10, 40.3 µM.
On the same count and under the same terms, the figure for B11 is 1.3 µM; for B12 it is 6 µM.
Molecule B13 registered an IC50 of 7.1 µM.
The same measure, in the same setting: with B14 the figure was 1.67 µM.

For the next test, the target named is T2, His-tagged, full-length PCSK9 (human, UniProt Q8NBP7 31-692).
T2 construct: secreted PCSK9 is autocatalytically cleaved into prodomain and catalytic domain + CRD (from S153), which stay associated; also called His-PCSK9; proprotein convertase subtilisin/kexin type 9; not shown: His tag
T2 sequence (Q8NBP7 31-692 limits assumed): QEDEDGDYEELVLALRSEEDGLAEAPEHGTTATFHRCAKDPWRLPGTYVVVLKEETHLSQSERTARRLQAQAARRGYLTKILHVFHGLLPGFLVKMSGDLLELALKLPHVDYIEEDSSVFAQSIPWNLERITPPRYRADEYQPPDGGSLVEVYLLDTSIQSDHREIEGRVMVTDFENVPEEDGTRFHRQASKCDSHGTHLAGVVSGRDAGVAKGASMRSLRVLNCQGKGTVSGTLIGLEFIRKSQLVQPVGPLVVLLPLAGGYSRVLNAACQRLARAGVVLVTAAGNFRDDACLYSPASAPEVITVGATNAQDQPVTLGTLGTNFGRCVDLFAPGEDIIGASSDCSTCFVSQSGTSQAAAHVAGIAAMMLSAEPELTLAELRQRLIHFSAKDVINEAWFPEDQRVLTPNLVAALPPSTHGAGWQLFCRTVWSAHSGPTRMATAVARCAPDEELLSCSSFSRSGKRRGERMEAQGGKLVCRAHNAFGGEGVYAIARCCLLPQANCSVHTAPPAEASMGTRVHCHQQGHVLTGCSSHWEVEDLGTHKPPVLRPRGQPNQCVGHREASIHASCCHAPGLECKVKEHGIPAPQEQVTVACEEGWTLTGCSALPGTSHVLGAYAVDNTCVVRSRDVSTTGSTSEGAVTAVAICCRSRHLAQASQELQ
The test is described as follows: TR-FRET competition (PCSK9/EGF(A) assay); competitor EGF(A)-Fc.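 Further: proximity signal from anti-His APC on PCSK9 paired with anti-Fc europium on the Fc ligand, read as normalized TR-FRET ratio across compound dilutions.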
Molecule B1 displayed an IC50 of over 50 µM.
Still for that read-out and setting: with Ac-SGCRL[Hyp′]WNLQRIGLPC-NH2 (disulfide 3-16) [Compound 37 (Ac-SG-CRL(Hyp)WNLQRIGLPC-NH2)] the figure was over 50 µM; with B2, over 50 µM.
Same read-out and setting: with B3 the figure was over 50 µM.
Same read-out and setting: the figure for B4 is over 50 µM; for B5 it is over 50 µM.
In turn, B6 gave an IC50 of over 50 µM.
With B7, the IC50 was over 50 µM.
The molecule B8 returned an IC50 of over 50 µM.
On the same count and under the same terms, with B9 the figure was over 50 µM; with B10, over 50 µM.
The molecule B11 yielded an IC50 of over 50 µM.
Turning to B12, the IC50 is 14.6 µM.
The molecule B13 had an IC50 of over 50 µM.
Same read-out and setting: with B14 the figure was over 50 µM.

The record behind these values is patent US20200283478A1 (Genentech, published 2020).
